From patent US20150203577A1 (Chugai, published 2015)
Substitutions are numbered along the chain they refer to. Numbers in names are those of the source.

T1: mouse FcγRII (mouse, UniProt P08101 30-210)
T1 construct: Extracellular domain with C-terminal His tag, made in FreeStyle 293 cells; also called mFcγRII; mFcgRII
T1 sequence: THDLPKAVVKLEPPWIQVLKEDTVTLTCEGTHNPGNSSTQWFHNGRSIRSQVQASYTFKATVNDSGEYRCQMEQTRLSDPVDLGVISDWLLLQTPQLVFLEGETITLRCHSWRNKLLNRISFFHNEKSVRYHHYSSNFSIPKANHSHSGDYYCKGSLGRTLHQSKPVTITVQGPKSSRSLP

T2: mouse FcγRIII (mouse, UniProt P08508 31-215)
T2 construct: Extracellular domain with C-terminal His tag, made in FreeStyle 293 cells; also called mFcγRIII; mFcgRIII
T2 chain: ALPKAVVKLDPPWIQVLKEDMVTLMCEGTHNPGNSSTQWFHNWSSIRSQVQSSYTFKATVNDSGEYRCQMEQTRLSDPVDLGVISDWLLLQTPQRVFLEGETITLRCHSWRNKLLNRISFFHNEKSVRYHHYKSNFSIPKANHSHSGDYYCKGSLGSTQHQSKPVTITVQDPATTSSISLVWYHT

T3: mouse FcγRII extracellular domain, C-terminal His tag (mouse, UniProt P08101 30-210)
T3 construct: Whole entry named; also called mFcγRII; mFcgRII
T3 sequence: T1 sequence

T4: mouse FcγRIII extracellular domain, C-terminal His tag (mouse, UniProt P08508 31-215)
T4 construct: Whole entry named; also called mFcγRIII; mFcgRIII
T4 chain: T2 chain

B1: H237-MB546/MRAL-k0 (antibody)
heavy: QVQLQESGPGLVKPSETLSLTCAVSGHSISHDHAWSWVRQPPGEGLEWIGFISYSGITNYNPSLQGRVTISRDNSKNTLYLQMNSLRAEDTAVYYCARSLARTTAMDYWGEGTLVTVSSAKTTPPSVYPLAPGSAAQTNSMVTLGCLVKGYFPEPVTVTWNSGSLSSGVHTFPAVLQSDLYTLSSSVTVPSSTWPSETVTCNVAHPASSTKVDKKIVPRDCGCKPCICEPNEVEMVFIFPPKPKDVLTITLTPKVTCVVVDISKDDPEVQFSWFVDDVEVHTAQTQPREEQFNLTFRSVSELPIMHQDWLNGKEFKCRVDSAAFPAPIERTISKTKGRPKAPQVYTIPPPKEQMAKDKVSLTCMITDFFPEDITVEWQWNGQPAENYKNTQPIMDTDGSYFVYSKLNVQKSNWEAGNTFTCSVLHEGLHNHHTEKSLSHSPGK
light: not shown
notes: copies: 2 + 2
B2: H237-MB528/MRAL-k0 (antibody, mouse IgG1, kappa)
heavy: B1 heavy with E229Q, M235E, D320N, A322D, R330K
light: not shown
notes: copies: 2 + 2
B3: H237-MB719/MRAL-k0 (antibody, mouse IgG1, kappa)
heavy: B1 heavy with M235Q, L294S, D320N, R330K
light: not shown
notes: copies: 2 + 2
B4: H237-MB723/MRAL-k0 (antibody, mouse IgG1, kappa)
heavy: B1 heavy with P230D, N231Y, V233E, M235D, L294S, D320N, R330K
light: not shown
notes: copies: 2 + 2
B5: H237-MB865/MRAL-k0 (antibody, mouse IgG1, kappa)
heavy: B1 heavy with M235L, K264D, Q291L, L294S, D320N, A322D, A323G, R330K
light: not shown
notes: copies: 2 + 2
B6: H237-MB855/MRAL-k0 (antibody, mouse IgG1, kappa)
heavy: B1 heavy with M235L, Q291L, L294S, D320N, A322D, A323G
light: not shown
notes: copies: 2 + 2
B7: H237-MB864/MRAL-k0 (antibody, mouse IgG1, kappa)
heavy: B1 heavy with M235L, K264D, L294S, D320N, A322D, A323G
light: not shown
notes: '8239L' in r313c2 read as S239L; copies: 2 + 2
B8: H237-MB541/MRAL-k0 (antibody)
heavy: B1 heavy with D320N
light: not shown
notes: copies: 2 + 2
B9: H237-MB861/MRAL-k0 (antibody, mouse IgG1, kappa)
heavy: B1 heavy with M235L, K264D, L294S, A322D, A323G, R330K
light: not shown
notes: copies: 2 + 2
B10: H237-MB722/MRAL-k0 (antibody)
heavy: B1 heavy with P230A, N231Y, V233E, M235D, L294S, D320N, R330K
light: not shown
notes: copies: 2 + 2
B11: H237-MB853/MRAL-k0 (antibody, mouse IgG1, kappa)
heavy: B1 heavy with M235L, Q291L, L294S, D320N, A322D, A323G, P327Y, R330K
light: not shown
notes: copies: 2 + 2
B12: H237-MB093/MRAL-k0 (antibody, mouse IgG1, kappa)
heavy: B1 heavy with E229T, P230V, N231P, M235S, L294S, D320N, R330K
light: not shown
notes: copies: 2 + 2
B13: H237-MB258/MRAL-k0 (antibody, mouse IgG1, kappa)
heavy: B1 heavy with E229T, P230V, N231P, E234S, M235S, L294H, D320N, R330K
light: not shown
notes: copies: 2 + 2
B14: H237-MB075/MRAL-k0 (antibody, mouse IgG1, kappa)
heavy: B1 heavy with E229T, P230V, N231P, V233E, E234S, M235S, L294S, D320N, R330K
light: not shown
notes: copies: 2 + 2
B15: H237-MB147/MRAL-k0 (antibody, mouse IgG1, kappa)
heavy: B1 heavy with E229T, P230V, N231P, E234S, M235S, F237E, L294S, D320N, R330K
light: not shown
notes: copies: 2 + 2
B16: H237-MB208/MRAL-k0 (antibody, mouse IgG1, kappa)
heavy: B1 heavy with E229T, P230V, N231P, E234S, M235S, S263M, L294S, D320N, R330K
light: not shown
notes: copies: 2 + 2
B17: H237-MB125/MRAL-k0 (antibody, mouse IgG1, kappa)
heavy: B1 heavy with E229T, P230V, N231P, E234S, M235W, L294S, D320N, R330K
light: not shown
notes: copies: 2 + 2
B18: H237-MB146/MRAL-k0 (antibody, mouse IgG1, kappa)
heavy: B1 heavy with E229T, P230V, N231P, E234S, M235S, F237D, L294S, D320N, R330K
light: not shown
notes: copies: 2 + 2
B19: H237-MB159/MRAL-k0 (antibody, mouse IgG1, kappa)
heavy: B1 heavy with E229T, P230V, N231P, E234S, M235S, F237T, L294S, D320N, R330K
light: not shown
notes: copies: 2 + 2
B20: H237-MB092/MRAL-k0 (antibody, mouse IgG1, kappa)
heavy: B1 heavy with E229T, P230V, N231P, E234D, M235S, L294S, D320N, R330K
light: not shown
notes: copies: 2 + 2
B21: H237-MB112/MRAL-k0 (antibody, mouse IgG1, kappa)
heavy: B1 heavy with E229T, P230V, N231P, E234S, M235F, L294S, D320N, R330K
light: not shown
notes: copies: 2 + 2
B22: H237-MB725/MRAL-k0 (antibody, mouse IgG1, kappa)
heavy: B1 heavy with P230T, N231Y, V233E, M235D, L294S, D320N, R330K
light: not shown
notes: copies: 2 + 2
B23: H237-MB724/MRAL-k0 (antibody, mouse IgG1, kappa)
heavy: B1 heavy with P230N, N231Y, V233E, M235D, L294S, D320N, R330K
light: not shown
notes: copies: 2 + 2
B24: H237-MB722/MRAL-k0 (antibody, mouse IgG1, kappa)
heavy: B1 heavy with P230A, N231Y, V233E, M235D, L294S, D320N, R330K
light: not shown
notes: copies: 2 + 2
B25: H237-MB727/MRAL-k0 (antibody, mouse IgG1, kappa)
heavy: B1 heavy with N231A, V233E, M235D, L294S, D320N, R330K
light: not shown
notes: copies: 2 + 2
B26: H237-MB723/MRAL-k0 (antibody, mouse IgG1, kappa)
heavy: B1 heavy with P230D, N231Y, V233E, M235D, L294S, D320N, R330K
light: not shown
notes: copies: 2 + 2
B27: H237-MB726/MRAL-k0 (antibody, mouse IgG1, kappa)
heavy: B1 heavy with P230V, N231Y, V233E, M235D, L294S, D320N, R330K
light: not shown
notes: copies: 2 + 2

What follows are binders tested against T1, mouse FcγRII (assay: SPR (Biacore), antibody captured on Protein L).

Kd [nM]	Binder
1.33	B1
0.56	B2
2.98	B3
19	B4
2.51	B5
5.81	B6
1.9	B7
2.04	B8
2.74	B9
8.04	B10
5.99	B11

Molecular target: T2, mouse FcγRIII
Experiment: SPR (Biacore), antibody captured on Protein L

Kd [nM]	Binder
50	B1
19.3	B2
122	B3
645	B4
84.4	B5
248	B6
77.6	B7
86.4	B8
117	B9
341	B10
249	B11

Each binder was assayed against T1, mouse FcγRII (assay: SPR (Biacore), KD of H237-mIgG1/MRAL-k0 / KD of variant).
Procedure: (§1) Each altered antibody was analyzed for its interaction with each Fcγ receptor prepared above using Biacore T100 (GE Healthcare Japan Corp.), Biacore T200 (GE Healthcare Japan Corp.), Biacore A100, or Biacore 4000. The running buffer used was HBS-EP+ (GE Healthcare Japan Corp.). The assay temperature was set to 25° C. The sensor chips used were chips prepared by immobilizing Protein L (ACTIGEN or BioVision) onto Series S Sensor Chip CM5 (GE Healthcare Japan Corp.) or Series S Sensor Chip CM4 (GE Healthcare Japan Corp.) by the amine coupling method.
(§2) In order to calculate the KD value of each altered antibody for FcγR, kinetic analysis was conducted according to the following method: first, the antibody of interest was captured onto any of these chips and allowed to interact with mFcγR diluted with a running buffer. For the obtained sensorgram, the assay results were globally fit into the 1:1 Langmuir binding model using Biacore Evaluation Software to calculate an association rate constant ka (L/mol/s) and a dissociation rate constant kd (1/s). From these values, the dissociation constant KD (mol/L) was calculated.

relative mFcγRII-binding activity (mIgG1 = 1) [fold]	Binder
158	B1
375	B2
70.4	B3
11	B4
83.8	B5
36.2	B6
110	B7
103	B8
76.8	B9
26.1	B10
35	B11

Molecular target: T2, mouse FcγRIII
Experiment: as above
Procedure: as §1, §2

relative mFcγRIII-binding activity (mIgG1 = 1) [fold]	Binder
5.6	B1
14.6	B2
2.3	B3
0.4	B4
3.3	B5
1.1	B6
3.6	B7
3.3	B8
2.4	B9
0.8	B10
1.1	B11

What follows are binders tested against T3, mouse FcγRII extracellular domain, … (assay: SPR (Biacore T200); KD of H237-mIgG1/MRAL-k0 / KD of variant).

relative mFcγRII-binding activity (mIgG1 = 1) [fold]	Binder
2.48	B12
0.37	B13
0.12	B14
0.95	B15
0.4	B16
0.81	B17
0.85	B18
0.37	B19
0.16	B20
0.47	B21

Molecular target: T4, mouse FcγRIII extracellular domain, …
Experiment: as above

relative mFcγRIII-binding activity (mIgG1 = 1) [fold]	Binder
0.61	B12
0.32	B13
0.07	B14
0.36	B15
0.26	B16
0.48	B17
0.21	B18
0.28	B19
0.05	B20
0.27	B21

Molecular target: T3, mouse FcγRII extracellular domain, …
Experiment: as above
Remark: another data set of the same source
Description: (§3) The antibody H chain variable region used was the variable region H237 (SEQ ID NO: 1) of the H chain VH3-IgG1 of the anti-IL-6 receptor antibody Fv4-IgG1 described in WO2009/125825. The antibody L chain commonly used was the L chain MRAL-k0 (SEQ ID NO: 2) of the anti-IL-6 receptor antibody tocilizumab. The aforementioned 11 variants were used as templates to introduce the alteration. These variants were expressed and purified by the method of Reference Example 1 and evaluated for their binding to mFcγRII and mFcγRIII by the method of Reference Example 2 using Biacore T200.
as §1, §2

relative mFcγRII-binding activity (mIgG1 = 1) [fold]	Binder
24.3	B22
20.8	B23
33.3	B24
11.7	B25
14.1	B26
35.7	B27

Molecular target: T4, mouse FcγRIII extracellular domain, …
Experiment: as above
Remark: another data set of the same source
Description: as §3, §1, §2

relative mFcγRIII-binding activity (mIgG1 = 1) [fold]	Binder
1.39	B22
1.19	B23
1.35	B24
0.66	B25
0.72	B26
2.08	B27
